Results from paper PMC10786891, “Massively parallel profiling of RNA-targeting CRISPR-Cas13d”.
Where a chain is given by its changes, count along the chain named. Names and notes keep the numbering of the source.

T1: EsCas13d, nuclease-dead (Eubacterium siraeum, UniProt B0MS50, R295A;H300A;R849A;H854A)
T1 sequence: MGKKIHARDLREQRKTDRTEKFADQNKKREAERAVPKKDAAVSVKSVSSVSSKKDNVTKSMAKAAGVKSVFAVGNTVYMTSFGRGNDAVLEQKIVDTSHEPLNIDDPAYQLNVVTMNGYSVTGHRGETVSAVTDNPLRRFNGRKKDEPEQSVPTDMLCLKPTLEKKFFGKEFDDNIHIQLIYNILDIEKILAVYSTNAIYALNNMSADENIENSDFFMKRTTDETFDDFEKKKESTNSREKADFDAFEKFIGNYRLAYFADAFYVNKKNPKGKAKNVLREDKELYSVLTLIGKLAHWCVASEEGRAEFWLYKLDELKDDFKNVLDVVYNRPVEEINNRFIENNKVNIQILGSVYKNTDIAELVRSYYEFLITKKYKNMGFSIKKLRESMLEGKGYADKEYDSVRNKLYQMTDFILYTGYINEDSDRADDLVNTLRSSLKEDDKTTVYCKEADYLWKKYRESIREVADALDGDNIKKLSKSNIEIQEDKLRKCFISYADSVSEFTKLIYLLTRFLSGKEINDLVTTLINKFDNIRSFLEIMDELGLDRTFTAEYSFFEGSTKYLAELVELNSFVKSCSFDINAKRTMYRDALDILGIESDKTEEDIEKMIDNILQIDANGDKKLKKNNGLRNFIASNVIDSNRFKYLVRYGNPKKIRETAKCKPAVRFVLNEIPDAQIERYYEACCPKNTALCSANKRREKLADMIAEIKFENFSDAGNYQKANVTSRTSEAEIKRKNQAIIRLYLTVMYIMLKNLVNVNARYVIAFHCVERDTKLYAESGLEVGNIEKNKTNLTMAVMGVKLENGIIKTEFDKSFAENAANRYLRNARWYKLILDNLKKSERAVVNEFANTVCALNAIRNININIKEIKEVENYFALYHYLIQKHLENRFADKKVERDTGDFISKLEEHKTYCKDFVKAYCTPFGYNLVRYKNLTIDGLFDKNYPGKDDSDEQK

B1: target 1 insC 3' of 15,insU 3' of 1 (mixed)
RNA 1: CACCCGUGCAAAAAUGCAGGGGUCUAAAACUGAGCGGAUAACCUCUCUAUGG
RNA 2: GGGAAUGGAUCCACAUCUACGAAUUCGUACCAUAGAGCAGGUUAUCCGCUCAUCCGAGAUCGGAAGAGCACACGU
B2: target 1 insA 3' of 15,insA 3' of 4 (mixed)
RNA 1: B1 RNA 1
RNA 2: B1 RNA 2 with C38A, U50A, C51U, A52C, U53A
B3: target 1 U10A,C21U (mixed)
RNA 1: B1 RNA 1
RNA 2: GGGAAUGGAUCCACAUCUACGAAUUCGUACUAUAGAGAGGUAAUCCGCUCACCGAGAUCGGAAGAGCACACGU
B4: target 1 insC 3' of 17,insA 3' of 12 (mixed)
RNA 1: B1 RNA 1
RNA 2: GGGAAUGGAUCCACAUCUACGAAUUCGUACCAUAGCAGAGGAUUAUCCGCUCACCGAGAUCGGAAGAGCACACGU
B5: target 1 U10G,U11A (mixed)
RNA 1: B1 RNA 1
RNA 2: B3 RNA 2 with U31C, U41A, A42G
B6: target 1 insU 3' of 17,insA 3' of 17 (mixed)
RNA 1: B1 RNA 1
RNA 2: B4 RNA 2 with C36U, G38A, A39G, G40A, A42G
B7: target 1 del3,del4 (mixed)
RNA 1: B1 RNA 1
RNA 2: GGGAAUGGAUCCACAUCUACGAAUUCGUACCAUAGAGAGGUUAUCCGCACCGAGAUCGGAAGAGCACACGU
B8: target 1 insA 3' of 13,insA 3' of 12 (mixed)
RNA 1: B1 RNA 1
RNA 2: B4 RNA 2 with C36A, A37G, G38A, A39G, G40A
B9: target 1 insU 3' of 14,insC 3' of 12 (mixed)
RNA 1: B1 RNA 1
RNA 2: B4 RNA 2 with C36A, A37G, G38A, A39U, A42C
B10: target 1 U8C,U11A (mixed)
RNA 1: B1 RNA 1
RNA 2: B3 RNA 2 with U31C, U41A, A42U, U44C
B11: target 1 C7G,A18U (mixed)
RNA 1: B1 RNA 1
RNA 2: B3 RNA 2 with U31C, A34U, A42U, C45G
B12: target 1 insC 3' of 17,insU 3' of 13 (mixed)
RNA 1: B1 RNA 1
RNA 2: B4 RNA 2 with G41U, A42G
B13: target 1 insC 3' of 10,insA 3' of 3 (mixed)
RNA 1: B1 RNA 1
RNA 2: B1 RNA 2 with C38A, A39G, G41U, U43C, C51A, A52C, U53A
B14: target 1 U10C,U11C (mixed)
RNA 1: B1 RNA 1
RNA 2: B3 RNA 2 with U31C, U41C, A42C
B15: target 1 insG 3' of 18,insA 3' of 4 (mixed)
RNA 1: B1 RNA 1
RNA 2: B1 RNA 2 with A36G, G37A, C38G, U50A, C51U, A52C, U53A
B16: target 1 C7U,C21U (mixed)
RNA 1: B1 RNA 1
RNA 2: B3 RNA 2 with A42U, C45U
B17: target 1 insA 3' of 21,insG 3' of 20 (mixed)
RNA 1: B1 RNA 1
RNA 2: B4 RNA 2 with U33A, A34G, G35U, C36A, A37G, G38A, A39G, G40A, A42G
B18: target 1 C2A,U19G (mixed)
RNA 1: B1 RNA 1
RNA 2: B3 RNA 2 with U31C, U33G, A42U, C50A
B19: target 1 insG 3' of 11,insA 3' of 3 (mixed)
RNA 1: B1 RNA 1
RNA 2: B1 RNA 2 with C38A, A39G, G41U, U42G, C51A, A52C, U53A
B20: target 1 insC 3' of 20,insC 3' of 13 (mixed)
RNA 1: B1 RNA 1
RNA 2: B4 RNA 2 with U33C, A34U, G35A, C36G, G41C, A42G
B21: target 1 del1,del3 (mixed)
RNA 1: B1 RNA 1
RNA 2: B7 RNA 2 with A49C
B22: target 1 U8G,G17U (mixed)
RNA 1: B1 RNA 1
RNA 2: B3 RNA 2 with U31C, G35U, A42U, U44G
B23: target 1 insC 3' of 13,insC 3' of 11 (mixed)
RNA 1: B1 RNA 1
RNA 2: B4 RNA 2 with C36A, A37G, G38A, A39G, G40C, A42U, U43C
B24: target 1 C4A,C22A (mixed)
RNA 1: B1 RNA 1
RNA 2: B3 RNA 2 with C30A, U31C, A42U, C48A
B25: target 1 insA 3' of 22,insA 3' of 21 (mixed)
RNA 1: B1 RNA 1
RNA 2: GGGAAUGGAUCCACAUCUACGAAUUCGUACACAAUAGAGAGGUUAUCCGCUCACCGAGAUCGGAAGAGCACACGU
B26: target 1 C4U,G12U (mixed)
RNA 1: B1 RNA 1
RNA 2: B3 RNA 2 with U31C, G40U, A42U, C48U
B27: target 1 C7A,U8C (mixed)
RNA 1: B1 RNA 1
RNA 2: B3 RNA 2 with U31C, A42U, U44C, C45A
B28: target 1 A1G,C6A (mixed)
RNA 1: B1 RNA 1
RNA 2: B3 RNA 2 with U31C, A42U, C46A, A51G
B29: target 1 insA 3' of 13,insU 3' of 12 (mixed)
RNA 1: B1 RNA 1
RNA 2: B25 RNA 2 with A31C, C32A, A33U, U35G, G42U
B30: target 1 C2A,U10A (mixed)
RNA 1: B1 RNA 1
RNA 2: B3 RNA 2 with U31C, C50A
B31: target 1 G5C,G15C (mixed)
RNA 1: B1 RNA 1
RNA 2: B3 RNA 2 with U31C, G37C, A42U, G47C
B32: target 1 C2U,A18C (mixed)
RNA 1: B1 RNA 1
RNA 2: B3 RNA 2 with U31C, A34C, A42U, C50U
B33: target 1 C7U,G13U (mixed)
RNA 1: B1 RNA 1
RNA 2: B3 RNA 2 with U31C, G39U, A42U, C45U
B34: target 1 A9C,A18U (mixed)
RNA 1: B1 RNA 1
RNA 2: B3 RNA 2 with U31C, A34U, A42U, A43C
B35: target 1 insC 3' of 8,insG 3' of 1 (mixed)
RNA 1: B1 RNA 1
RNA 2: B1 RNA 2 with C38A, A39G, G41U, U43A, A44U, U45C, U53G

Target: T1, EsCas13d, nuclease-dead
Assay: crRNA (strand 1, pre-loaded); Mg2+; 40 mM Tris-HCl pH 7.5, 150 mM NaCl, 6 mM MgCl2, 1 mM DTT, 0.1% Tween-20, 0.2 mg/ml BSA; 25 C; 10 min per concentration, then washed
Conditions: tags: His6-TwinStrep-SUMO cleaved; N-terminal SNAP kept (SNAP-Surface 488); label: 3' end held by stalled T7 RNA polymerase

Binder	Kd
B1	19.1 ± 1.8 nM
B2	7.7 ± 0.9 nM
B3	8.1 ± 0.5 nM
B4	32.9 ± 2.7 nM
B5	12.9 ± 1 nM
B6	30.5 ± 2.2 nM
B7	14.4 ± 1.2 nM
B8	11.8 ± 0.8 nM
B9	50 ± 10 nM
B10	32.5 ± 3.2 nM
B11	32 ± 6 nM
B12	80 ± 40 nM
B13	12.9 ± 0.6 nM
B14	24.7 ± 2.9 nM
B15	43 ± 5 nM
B16	6 ± 0.4 nM
B17	24 ± 4 nM
B18	48 ± 5 nM

Binder	Kd
B19	17.5 ± 1.2 nM
B20	7.2 ± 0.6 nM
B21	45 ± 13 nM
B22	91 ± 14 nM
B23	14.2 ± 1 nM
B24	5.7 ± 0.8 nM
B25	16.2 ± 0.9 nM
B26	36 ± 8 nM
B27	9 ± 0.4 nM
B28	7 ± 0.35 nM
B29	4.2 ± 0.5 nM
B30	13.9 ± 0.8 nM
B31	38 ± 5 nM
B32	48.9 ± 2.9 nM
B33	39 ± 6 nM
B34	63 ± 10 nM
B35	14.3 ± 1 nM
